Data from patent US20250243285A1 (Novartis, published 2025).
Positions count from the first letter of the chain named.

B1: C10 (scFv)
scFv: EVQLVQSGAEVKKPGSSVKVSCKASGGTFSSYAISWVRQAPGQGLEWMGGIIPIFGTANYAQKFQGRVTITADESTSTAYMELSSLRSEDTAVYYCAREEGPYCSSTSCYGAFDIWGQGTLVTVSSGGGGSGGGGSGGGGSQSVLTQDPAVSVALGQTVKITCQGDSLRSYFASWYQQKPGQAPTLVMYARNDRPAGVPDRFSGSKSGTSASLAISGLQSEDEADYYCAAWDDSLNGYLFGAGTKLTVL
notes: The CAR built from it is m23; also called C10 scFv (anti-EGFR, parental)
B2: P2-4 (scFv)
scFv: B1 scFv with G111A, V151A
notes: The CAR built from it is m21; also called P2-4 scFv (anti-EGFR)
B3: P3-5 (scFv)
scFv: B1 scFv with M48V, T69K, T76A, F172L, M188T
notes: The CAR built from it is m22; also called P3-5 scFv (anti-EGFR)
B4: C4-27z CAR (fully human anti-FRA C4 scFv linked to CD27 and CD3z signaling domains), on primary human T cells (other, not shown: large carriers)
chain: QLVESGGGLVQPGRSLRLSCTTSGFTFGDYAMIWARQAPGKGLEWVSSISSSSSYIYYADSVKGRFTISRDNAKNSLYLQMNSLRAEDTAVYYCARERYDFWSGMDVWGKGTTVTVSSGGGGSGGGGSGGSAQSALTQPASVSGSPGQSITISCTGTSSDVGSYNLVSWYQQHPGKAPKLMIYEGSKRPSGVSNRFSGSKSGNAASLTISGLQAEDEADYYCQSYDSSLSVVFGGGTKLTVLG

What was measured:
[1] = biological target: T1, EGFR on cells (A431; tumor cell lines; K562 cells electroporated with EGFR mRNA) (UniProt P00533 25-1210, limits assumed); test: affinity of the scFv printed above the panel (legend paragraph 89; called KD, nM in paragraph 90); method and form of EGFR not given in the filing, text cites Zhou et al. 2007
T1 construct: whole, on cells; also called epidermal growth factor receptor

[2] = biological target: Folate receptor alpha on cells (SKOV3, A1847, T47D; low levels on 293T and IOSE 6) (human, UniProt P15328 25-234); test: cell-based or functional assay
Sequence of Folate receptor alpha on cells (SKOV3, A1847, T47D; low levels on 293T and IOSE 6) (P15328 25-234, stated change not applied): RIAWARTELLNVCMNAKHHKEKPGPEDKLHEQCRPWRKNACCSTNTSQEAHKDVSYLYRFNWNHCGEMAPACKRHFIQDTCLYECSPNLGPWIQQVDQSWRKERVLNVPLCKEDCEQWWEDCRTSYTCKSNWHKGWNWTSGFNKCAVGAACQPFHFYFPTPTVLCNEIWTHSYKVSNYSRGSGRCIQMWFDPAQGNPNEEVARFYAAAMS

| Binder | Kd [1] [nM] | CAR expression kept after overnight co-culture with SKOV3 cells at the lowest E:T ratio [2] | frequency of CAR T cells expressing IFN-γ after incubation with FRAPOS SKOV3 cells, fold over MOv19 CAR T cells [2] [fold] | frequency of CAR T cells expressing IL-2 after incubation with FRAPOS SKOV3 cells, fold over MOv19 CAR T cells [2] [fold] | frequency of CAR T cells expressing TNF-α after incubation with FRAPOS SKOV3 cells, fold over MOv19 CAR T cells [2] [fold] |
| --- | --- | --- | --- | --- | --- |
| B1 | 264 |  |  |  |  |
| B2 | 15.4 |  |  |  |  |
| B3 | 88.2 |  |  |  |  |
| B4 |  | ~50 % of initial CAR expression | 5.6 | 9 | 6.1 |
